Fewer inactive variants are shown than the library holds.
How the values were obtained:
[1] = test system: biotinyl-Phe-oxazolone; assay: self-aminoacylation, catalytic enhancement (BFO) (fold over background); higher = more active; k-Seq, kA / k0A0; sequences stand for … in GGGAAUGGAUCCACAUCUACGAAUUC…UUCACUGCAGACUUGACGAAGCUG
In short: (§1)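 Mutagenized RNA pools with a 21-nt variable region (0.43 μM) were reacted with each biotinyl-aminoacyl-oxazolone at 2–1250 μM for 90 minutes at room temperature, in 50 μL HEPES/NaCl/KCl/MgCl2/CaCl2 buffer containing 5% acetonitrile at pH 6.9–7.0. RNA captured on streptavidin was quantified by triplicate qPCR and by Illumina sequencing. The fraction reacted for each sequence was fit to a pseudo-first-order model with bootstrapping, and catalytic enhancement is the median kA divided by the uncatalyzed rate, taken as the low-activity peak of a bimodal Gaussian fit.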

[2] = test system: biotinyl-Ile-oxazolone; assay: self-aminoacylation, catalytic enhancement (BIO) (fold over background); higher = more active; k-Seq, kA / k0A0; sequences stand for … in GGGAAUGGAUCCACAUCUACGAAUUC…UUCACUGCAGACUUGACGAAGCUG
In short: as §1

[3] = test system: biotinyl-Met-oxazolone; assay: self-aminoacylation, catalytic enhancement (BMO) (fold over background); higher = more active; k-Seq, kA / k0A0; sequences stand for … in GGGAAUGGAUCCACAUCUACGAAUUC…UUCACUGCAGACUUGACGAAGCUG
In short: as §1

[4] = test system: biotinyl-Val-oxazolone; assay: self-aminoacylation, catalytic enhancement (BVO) (fold over background); higher = more active; k-Seq, kA / k0A0; sequences stand for … in GGGAAUGGAUCCACAUCUACGAAUUC…UUCACUGCAGACUUGACGAAGCUG
In short: as §1

[5] = test system: biotinyl-Leu-oxazolone; assay: self-aminoacylation, catalytic enhancement (BLO) (fold over background); higher = more active; k-Seq, kA / k0A0; sequences stand for … in GGGAAUGGAUCCACAUCUACGAAUUC…UUCACUGCAGACUUGACGAAGCUG
In short: as §1

[6] = test system: biotinyl-Trp-oxazolone; assay: self-aminoacylation, catalytic enhancement (BWO) (fold over background); higher = more active; k-Seq, kA / k0A0; sequences stand for … in GGGAAUGGAUCCACAUCUACGAAUUC…UUCACUGCAGACUUGACGAAGCUG
In short: as §1

Sequence	self-aminoacylation [1]	self-aminoacylation [2]	self-aminoacylation [3]	self-aminoacylation [4]	self-aminoacylation [5]	self-aminoacylation [6]
AAUCACCUAGGUCAUCGGGAG [Fam2.2 aminoacylation ribozyme variant]	1.94	1.67	1.89	2.17	1.51	1.55
AAUCACCUAGGUCAUCGGGUG [Fam2.2 aminoacylation ribozyme variant]	42.9	5.67	7.92	5.65	9.15	8.58
AAUCACCUAGGUCAUCGGGUU [Fam2.2 aminoacylation ribozyme variant]	11.5	4.1	5.39	3.65	6.71	5.39
AAUCACCUAGGUCAUCGGUUG [Fam2.2 aminoacylation ribozyme variant]	5.05	1.44	1.74	1.29	1.66	1.69
AAUCACCUAGGUCUUCGGGUG [Fam2.2 aminoacylation ribozyme variant]	46.9	3.79	4.54	3.98	5.09	6.75
AAUCACCUAUGUCAUCGGGUG [Fam2.2 aminoacylation ribozyme variant]	23.4	3.28	4.23	3.29	4.9	6.14
AAUCCCCUGGUCAUCGAGUGA [Fam2.1 aminoacylation ribozyme variant]	34.4	3.35	6.29	3.96	6.5	5.97
AAUCGCCUAGGUCAUCGGGUG [Fam2.2 aminoacylation ribozyme variant]	72.9	6.97	10.4	8.02	9.78	10
AAUGACCUAGGUCAUCGGGUG [Fam2.2 aminoacylation ribozyme variant]	26.1	3.66	4.56	3.56	4.85	5.22
AAUUUCGCUAAUAGUCGCAAG [Fam3.1 aminoacylation ribozyme variant]	2.64	2.19	1.94	1.88	2.24	1.9
AAUUUUGCAAAUAGUCGCAAG [Fam3.1 aminoacylation ribozyme variant]	2.73	2.33	2.02	2.31	1.51	2.48
AAUUUUGCUAACAGUCGCAAG [Fam3.1 aminoacylation ribozyme variant]	3.07	1.88	1.28	1.58	1.87	1.88
AAUUUUGCUAAUACUCGCAAG [Fam3.1 aminoacylation ribozyme variant]	1.5	1.5	1.01	1.35	1.47	1.03
AAUUUUGCUAAUAGUCGCAAA [Fam3.1 aminoacylation ribozyme variant]	2.06	3	3.1	2.15	2.22	2.42
AAUUUUGCUAAUAGUCGCAAU [Fam3.1 aminoacylation ribozyme variant]	2.09	2.95	2.88	2.13	2.91	2.09
ACACACUACAAGCAAUCGGUC [Fam1B.1 aminoacylation ribozyme variant]	1.65	1.2	0.815	1.24	0.855	1.02
ACACACUUCAAGCAAUCGGUU [Fam1B.1 aminoacylation ribozyme variant]	4.53	2.21	2.44	2.05	2.26	4.24
ACACACUUCAAGCACUCGGUC [Fam1B.1 aminoacylation ribozyme variant]	1.49	1.44	1.42	1.3	1.62	1.77
ACACACUUCAGGCAAUCGGUC [Fam1B.1 aminoacylation ribozyme variant]	1.75	1.56	1.38	1.44	1.42	1.84
ACACACUUCCAGCAAUCGGUC [Fam1B.1 aminoacylation ribozyme variant]	1.19	1.47	1.31	1.3	1.3	1.6
ACACAUUUCAAGCAAUCGGUC [Fam1B.1 aminoacylation ribozyme variant]	2.41	1.2	1.12	1.41	1.12	1.86
ACACUUCAAACAAUCGGUCUG [Fam1A.1 aminoacylation ribozyme variant]	75.9	1.7	1.57	1.43	2.16	33.3
ACGUUUCCUAAUAGUCGCAAG [Fam3.1 aminoacylation ribozyme variant]	1.35	1.61	1.33	1.21	1.08	1.3
ACGUUUGCUAAGAGUCGCAAG [Fam3.1 aminoacylation ribozyme variant]	2.95	1.35	1.12	1.44	1.65	1.44
ACGUUUGCUAAUAGUCGCAAC [Fam3.1 aminoacylation ribozyme variant]	1.42	1.36	0.972	1.18	1.43	0.859
ACGUUUGCUCAUAGUCGCAAG [Fam3.1 aminoacylation ribozyme variant]	2.58	1.89	1.88	1.91	2.49	3.57

Reference: the supplement of paper PMC9233669
